The values that follow are results of earlier work, collected in paper PMC7801465.

In the series the target is SARS-CoV-2 spike (SARS-CoV-2) (UniProt P0DTC2).

Regarding Basigin (from UniProt P35613), the Kd (usually the free concentration of one partner at which half of the binding sites on the other are occupied at equilibrium, for simple one-to-one binding) is 185 nM.
